B1: iolS (Bacillus subtilis subsp. subtilis str. 168) (protein)
chain: MKKAKLGKSDLQVFPIGLGTNAVGGHNLYPNLNEETGKELVREAIRNGVTMLDTAYIYGIGRSEELIGEVLREFNREDVVIATKAAHRKQGNDFVFDNSPDFLKKSVDESLKRLNTDYIDLFYIHFPDEHTPKDEAVNALNEMKKAGKIRSIGVSNFSLEQLKEANKDGLVDVLQGEYNLLNREAEKTFFPYTKEHNISFIPYFPLVSGLLAGKYTEDTTFPEGDLRNEQEHFKGERFKENIRKVNKLAPIAEKHNVDIPHIVLAWYLARPEIDILIPGAKRADQLIDNIKTADVTLSQEDISFIDKLFA
notes: pET28a, His-tagged, expressed in E. coli BL21(DE3), Ni-NTA purified
B2: iolS (Bacillus subtilis subsp. subtilis str. 168; F126L/I57F) (protein)
chain: MKKAKLGKSDLQVFPIGLGTNAVGGHNLYPNLNEETGKELVREAIRNGVTMLDTAYFYGIGRSEELIGEVLREFNREDVVIATKAAHRKQGNDFVFDNSPDFLKKSVDESLKRLNTDYIDLFYIHLPDEHTPKDEAVNALNEMKKAGKIRSIGVSNFSLEQLKEANKDGLVDVLQGEYNLLNREAEKTFFPYTKEHNISFIPYFPLVSGLLAGKYTEDTTFPEGDLRNEQEHFKGERFKENIRKVNKLAPIAEKHNVDIPHIVLAWYLARPEIDILIPGAKRADQLIDNIKTADVTLSQEDISFIDKLFA
notes: as for B1
B3: iolS (Bacillus subtilis subsp. subtilis str. 168; F126A/N21A) (protein)
chain: MKKAKLGKSDLQVFPIGLGTAAVGGHNLYPNLNEETGKELVREAIRNGVTMLDTAYIYGIGRSEELIGEVLREFNREDVVIATKAAHRKQGNDFVFDNSPDFLKKSVDESLKRLNTDYIDLFYIHAPDEHTPKDEAVNALNEMKKAGKIRSIGVSNFSLEQLKEANKDGLVDVLQGEYNLLNREAEKTFFPYTKEHNISFIPYFPLVSGLLAGKYTEDTTFPEGDLRNEQEHFKGERFKENIRKVNKLAPIAEKHNVDIPHIVLAWYLARPEIDILIPGAKRADQLIDNIKTADVTLSQEDISFIDKLFA
notes: as for B1
B4: iolS (Bacillus subtilis subsp. subtilis str. 168; I57F) (protein)
chain: MKKAKLGKSDLQVFPIGLGTNAVGGHNLYPNLNEETGKELVREAIRNGVTMLDTAYFYGIGRSEELIGEVLREFNREDVVIATKAAHRKQGNDFVFDNSPDFLKKSVDESLKRLNTDYIDLFYIHFPDEHTPKDEAVNALNEMKKAGKIRSIGVSNFSLEQLKEANKDGLVDVLQGEYNLLNREAEKTFFPYTKEHNISFIPYFPLVSGLLAGKYTEDTTFPEGDLRNEQEHFKGERFKENIRKVNKLAPIAEKHNVDIPHIVLAWYLARPEIDILIPGAKRADQLIDNIKTADVTLSQEDISFIDKLFA
notes: as for B1
B5: iolS (Bacillus subtilis subsp. subtilis str. 168; N21A) (protein)
chain: MKKAKLGKSDLQVFPIGLGTAAVGGHNLYPNLNEETGKELVREAIRNGVTMLDTAYIYGIGRSEELIGEVLREFNREDVVIATKAAHRKQGNDFVFDNSPDFLKKSVDESLKRLNTDYIDLFYIHFPDEHTPKDEAVNALNEMKKAGKIRSIGVSNFSLEQLKEANKDGLVDVLQGEYNLLNREAEKTFFPYTKEHNISFIPYFPLVSGLLAGKYTEDTTFPEGDLRNEQEHFKGERFKENIRKVNKLAPIAEKHNVDIPHIVLAWYLARPEIDILIPGAKRADQLIDNIKTADVTLSQEDISFIDKLFA
notes: as for B1
B6: iolS (Bacillus subtilis subsp. subtilis str. 168; F126L) (protein)
chain: MKKAKLGKSDLQVFPIGLGTNAVGGHNLYPNLNEETGKELVREAIRNGVTMLDTAYIYGIGRSEELIGEVLREFNREDVVIATKAAHRKQGNDFVFDNSPDFLKKSVDESLKRLNTDYIDLFYIHLPDEHTPKDEAVNALNEMKKAGKIRSIGVSNFSLEQLKEANKDGLVDVLQGEYNLLNREAEKTFFPYTKEHNISFIPYFPLVSGLLAGKYTEDTTFPEGDLRNEQEHFKGERFKENIRKVNKLAPIAEKHNVDIPHIVLAWYLARPEIDILIPGAKRADQLIDNIKTADVTLSQEDISFIDKLFA
notes: as for B1

These proteins were tested on O=C(Nc1ccccc1)C(=O)c1ccccc1 (assay: initial velocity by HPLC of product, nonlinear Michaelis-Menten fit). Details: NAD(P)H cofactor, potassium phosphate 100 mM pH 7.0, 30 °C.
Format: biochemical, Bacillus subtilis
Excerpt: initial velocity by HPLC of product, nonlinear Michaelis-Menten fit on iolS

Question: What does the source list for B1?
Answer: Km: 1810 ± 130 µM; kcat: 3.53 ± 0.12 s⁻¹; kcat/Km: 1950 M⁻¹ s⁻¹

Question: For B2, which Km is on record?
Answer: Its Km is 1710 ± 110 µM.

Question: And the kcat?
Answer: The kcat was 4.32 ± 0.14 s⁻¹.

Question: What about the kcat/Km of the same protein?
Answer: Its kcat/Km is 2510 M⁻¹ s⁻¹.

Question: What does the source list for B3?
Answer: Km: 1650 ± 120 µM; kcat: 6.4 ± 0.25 s⁻¹; kcat/Km: 3880 M⁻¹ s⁻¹

Question: Which Km does the source give for B4 here?
Answer: The Km was 1720 ± 130 µM.

Question: And the kcat?
Answer: The kcat was 3.96 ± 0.23 s⁻¹.

Question: What about the kcat/Km of the same protein?
Answer: Its kcat/Km is 2320 M⁻¹ s⁻¹.

Question: Which results are given for B5?
Answer: Km: 1160 ± 160 µM; kcat: 4.1 ± 0.12 s⁻¹; kcat/Km: 3530 M⁻¹ s⁻¹

Question: Which results are given for B6?
Answer: Km: 1550 ± 220 µM; kcat: 3.81 ± 0.13 s⁻¹; kcat/Km: 2450 M⁻¹ s⁻¹
